In the DeepSol protein solubility set:

assay: soluble on expression in E. coli; label from the status in PepcDB or PDB records

Row | Sequence | soluble on expression in E. coli
1 | MSDIEAVVVSDLHLGYEEEMNLHGLFLPRIQRDHITSVMDRIIERYNPQRIIINGDFKQEFSKNLPSEWTDVLYFIDRYDDRDLIFIRGNHDNYLATILSKKNIGMMDFYEDDRYFIYHGDRNMGIKKITILGHEHPSLVLRDRVGGVYKLPAFAFNFRRNVIITPSMSFFSSGTDLSQSLLSEEHFTPALKGMKPSCFRIFAITDEFGLVDFGYLDDLHSSGEQQIRDR | not soluble
2 | MSLARTPNGGAIACSDAAALGKDELFWGALFRGLNRGGSFLQLQIRQIIVTAIEDGRLPLGMKMPSSRDLATVLKVSRNTVVIAYEQLVDQNFLVSRQRSGYFVAGLPKKFATEAPGLAEVTSRGDEHWVDRFAVRPSAHRNIVKPLDWQTHPYPFIFGQFDPSLFPTNDWRESARAALSVPEINNWARDLIDGDDPALIEQLQLQVLPRRGIHARADEIMMTIGAQHALYLIATLFINGQTKVGIEEPGYPDARNIFRMLTPNVVPLSVDSEGVVPDAMFQSCALAYVTSSHQCPTAVTMPLPRRIELLKAAATGDVVVVEDDYEGELMPESATLPPLKSIDRASNVLYVGSLSKALAPGLRLGYVVAPAPVIRELRALRRLMLRHPPLNNQRVAALFIGLGHYRAHLAQVGRVLLERAKLLDQLLPKHLPSCSFSRGPGSTNFWVTCPTSIDATALAEAALEQGVVIEPGAVFSMDETASRHCFRLGFSSIRTDRIEVGIQRLGEVIAQHLKAEGHHHHHH | soluble
3 | MAHHHHHHMLRLLPLRLASKVTAGNAKNQAGHPRRKAKLFHVIPGTPVTPMEKLKEQRRRYGQDRHSRLPEYRPGKNVRLDPNTFTLYATTKGVMTIRESRINPKYKWLEVEPDIQKVYRSSQMRRALAARGMTSQMVEKNEHYRSEMDLLLEPHWRQRVMRVPKATERFKDPNLFVRGVITELTPMDRYCYE | not soluble
4 | MSAAGVRSTRQRAAISTLLETLDDFRSAQELHDELRRRGENIGLTTVYRTLQSMASSGLVDTLHTDTGESVYRRCSEHHHHHLVCRSCGSTIEVGDHEVEAWAAEVATKHGFSDVSHTIEIFGTCSDCRS | soluble
5 | MPVVKSIYSSLKSFADYFSPSAKTSSQQVVILRMPGNPLELVGLVTRRTLEGLPDGFTQGDRVAVYLPMGYMIGGYTVFVPTEWVHPIQMSVEEAMRSSLIAWMARLEHHHHHH | not soluble
6 | AGKPVLHYFNARGRMECIRWLLAAAGVEFEEKFIQSPEDLEKLKKDGNLMFDQVPMVEIDGMKLAQTRAILNYIATKYDLYGKDMKERALIDMYSEGILDLTEMIGQLVLCPPDQREAKTALAKDRTKNRYLPAFEKVLKSHGQDYLVGNRLTRVDIHLLEVLLYVEEFDASLLTPFPLLKAFKSRISSLPNVKKFLQPGSQRKPPMDAKQIQEARKAFKIQ | soluble
7 | GSPEFMELEIRPLFLVPDTNGFIDHLASLARLLESRKYILVVPLIVINELDGLAKGQETDHRAGGYARVVQEKARKSIEFLEQRFESRDSCLRALTSRGNELESIAFRSEDITGQLGNNDDLILSCCLHYCKDKAKDFMPASKEEPIRLLREVVLLTDDRNLRVKALTRNVPVRDIPAFLTWAQVG | soluble
8 | SSPTMTSSLRLRTLILGKQRWIKPRNFYQFCDKYAIGYENKKNNSLRNHKILRFNDGSVANYRIYEFEIYNFNSDSWKVFDFTPDWDISFTDLSVSLKGYTYWLIRSNGLIQEYYARSLRKMMIKNY | soluble
9 | MSLTISLGYRALDVGRARAHALIDQLSARESVELLCEAFEVPRSCYYNHRLRRRNPDVERVRLRSRVNELFTQSRSAAGSRSIVLMMHEDGEQIGRFKVRSLMRELGLISKQPGSHAYRKATVERPDIPNILNRAFDVPAPNQVWCGDITYIWAQGKWHYLAVVMDLFARRVVGWALSSKPDTDLVIKALDMAYEQRGKPQGLLFHSDQGAQYGSRQFRQRLWRYRIRQSMSRRGNCWDNAPMERVFRSLKTEWIPTVGYMTAQEAQRDISHYLMHRYNWIRPHQFNNGLAPAQSEKRLNVVSGISEGHHHHHH | not soluble
10 | MSLEVNVEGKLEAMQAVVGAKAVPFAGTQAEPIQIAMIYPSADTSDFWARNYIAMTKRLEELGIQFETTEFASRQIEHSLQSTYANQVVQDADLYDFVIFGPSELAIQADNIDKMAASEGFSTFVWAFHTPLKDLKNQPDGWFDFSSAAGALTMCDYMLGRLGNDVTMAMNRGIPGITDDQRSGDFKACVEEKGNWTTIYEHYGEYQREGGFEGTSLILQAYPEATVIHNANTAMAMGSVEAQISVGKEKEVFSTGWGGTGLELDAIRRGELDATPMRMGDDVGAATAEAIKAHLEGRSDELPFVFLGRITVAHDQMSAEEIDALEAEAFRFSGVGALEREGHHHHHH | not soluble
11 | MGSDKIHHHHHHMAFTPFPPRQPTASARLPLTLMTLDDWALATITGADSEKYMQGQVTADVSQMAEDQHLLAAHCDAKGKMWSNLRLFRDGDGFAWIERRSVREPQLTELKKYAVFSKVTIAPDDERVLLGVAGFQARAALANLFSELPSKEKQVVKEGATTLLWFEHPAERFLIVTDEATANMLTDKLRGEAELNNSQQWLALNIEAGFPVIDAANSGQFIPQATNLQALGGISFKKGCYTGQEMVARAKFRGANKRALWLLAGSASRLPEAGEDLELKMGENWRRTGTVLAAVKLEDGQVVVQVVMNNDMEPDSIFRVRDDANTLHIEPLPYSLEE | soluble
12 | MSLQNAYWLTNVRLETGYKFNNEVVTGTETALHHLLIQDGKIEKIVLADVPLQTEYETKDAKELLVLPSFVENHFHLDKTKLGGPWEACTPVKNIIERLELEQQELPILAQTTGERAELLLRNILNAGSTHIRTHVNIDPYIGLKNLESVRQTLENMKDAFTYEIVAFPQHGLLRTEAHSLMREAMKMGATLVGGVDPATVDNNIEKSLFDMMEIAVEANADVDLHLHDAGHLGIYTIKKLAQYTEEASWDGRVAVSHAFSLGDVSKEEGADMADLLAERGMSIITTVPINRNMPPVPLLTEKGVPISLGCDSMFDSWGPFGNADIFERVGRLAEKYRWMDEKSLASSLAYITGGKTPLDQEGNQVWPKVGDKADFVFLQATCSAEAIARRAKRPAVMRDGKIVAGSLQHVQGVLIEGHHHHHH | soluble
13 | MVIRVYIASSSGSTAIKKKQQDVLGFLEANKIGFEEKDIAANEENRKWMRENVPENSRPATGYPLPPQIFNESQYRGDYDAFFEARENNAVYAFLGLTAPPGSKEAEV | soluble
14 | MTSDGMDEWPTGRLLSTAARLVEHSWEDILRSQNMTHAGLICLHTIADRPASQRDIAKVSRVTDQTISRTIDRLERAGYVTRETDPLDERRKRVAITESGRAIYRRLLALEKEDAALTAAVGDVGPLREQLLLLVRSLGLPTRD | not soluble
15 | HFVKSVEDKAISVTLAQGNIEQNLKWDPNYFYSTLAIYQKLITENLGKTDLIILPESALPTLENAITPFFEGLERAAKETKTEIMVGTVFQDTKSGKLLNSIMTAGNPDFPYQPNTQNRYNKHHLVPFGEYVPLESILRPLNSVFNLPMSAFQSGEAVQPSLIAKKRAFSPAICYEIIFGEQVRQNLKQDTDYLLTLSNDAWFGDSIGPWQHLQMARMRALELGKPLIRATNTGISVFVDAQGKVLAQAPQFIETTLTYKIAPAEGKTPYSVLGNMPLYALSLLFLLLHS | not soluble
16 | MDKDCEMKRTTLDSPLGKLELSGCEQGLHEIKLLGKGTSAADAVEVPAPAAVLGGPEPLMQCTAWLNAYFHQPEAIEEFPVPALHHPVFQQESFTRQVLWKLLKVVKFGEVISYQQLAALAGNPKAARAVGGAMRGNPVPILIPCHRVVCSSGAVGNYSGGLAVKEWLLAHEGHRLGKPGLGGSSGLAGAWLKGAGATSGSPPAGRN | soluble
